# A protein production outcome set (Wang et al. 2014)
# Test: label from the status in PepcDB records
row,Sequence,protein production
1,MFKSPENDSLVSAVFDSSPIGIQIIDLETGMREKINQTACVLLGDTKDNLMAKSVFEDCTWLGKDKFLFVIERLKENKTLKNHIVQFENHQGNELTISYDISEFKYRSKRLVTVSMNDVT,failed
2,MFKTILLAYDGSEHARRAAEVAKAEAEAHGARLIVVHAYEPVPDYLGEPFFEEALRRRLERAEGVLEEARALTGVPKEDALLLEGVPAEAILQAARAEKADLIVMGTRGLGALGSLFLGSQSQRVVAEAPCPVLLVR,not failed
3,MFKVGPIGSKQYYDKSWEEKGRNMISIFGILVHDGHVKANIQVRLNDDEYVTGLSGIFWERKVTSLTFHTNQGKHGPFCNGTGYSSSYMADYKKEIDVKIRDRREFGGFFGSFDDEFDGLTSIGIYVYPTYDNKPTLNQAWDPLYAFAHNQIPTIADGIPVMHIRYKPKLKDRIFSKLDFKRAMLCLIKVFLD,failed
4,MFKVPKQSYTAEFKAAAVQRVKDGQGVGAVARELSVSEQTLRNWMKAEQAGKLGGAGAKVVTPEQMELSRLRAENKRLQMELEIAKKAAAYFAKDLL,failed
5,MFLDMLSLIRGQKIKLNDALQGQSSFYIQIHYQAAFDLDIASFGLDSQYRLSDERYMTFYNQPETPCQAVRLIENQNKCSRFLVDLAKLPATIQHLVLTAAIDGQNIMSQLQQVTVQILNLQLQPIAELKLDASIFDQERATMLIEIYRKEGIWRLAAIGQGFNAGLAALIQHFGGEVAEEPTAQQTTPVAPQSNIDLKKKLSLQKAEKTGNASIIDLTKKSLVQLEKKKLLGVTARVALVLDASGSMDGQYRRGDVQKVVNRLMPLAIHFDDDGSFECWAFAAETTQLDDVTLSNVNDFINSTQRGWKNWQVGARYNEEIPAIEAVINYFQKFQDQIPTYVLFISDGGVGSRRQMQKILSQAAKLPIFWQFVGIGGRNYGALEKLDEMSGRIVDNCNFFSLDRIDGVSDERLYELLLQEFPDWLIAARQHQIVRN,failed
6,MFLDRERELQFLERRYEMGGPEFIVIYGRRRVGKTALLLEFISRHGGIYLLARETSNLENLKRFSDRLSEYFGDDFLKRNPFQNWDAFLEYLNQKATERLVVVIDEFPYLVKGDRSLPSILQEYWDLKLSNGRIFLIICGSSISMMEKLLGYKSPIYGRRTGQINLKPVDFLHAREFLPGYSLEDFIKAYGILGGSPAHLLEFDDSKTIKENLLEYLRSDSLLYQDAFFVLREELEEPRNYFAIMEAVAAGKTSLGEIMNETGLSRATVAKYLSVLIELDFVKREIPITASRKSRRGRYYIKDNYFAFWFRYIHPNIDFIESERRKELLELIIDDLPNYLGGIFENVAIEFLPLISNKLPFKPLKIGRWWHKNEEIDLVAFNEKEEKAILIEVKWKTLNKIEANKILKDLNRKSKILKMKEWEQYHGIIAKRVKDKEKIKGGLIWDLEDIENLKFSPELEHHHHHH,not failed
7,MFLEIAKVYLQGLGLASITVILVGIIWVFWRAKKNIDKTARERQSVLYDVLLIALMTAPILAFAFVAIILMIKA,failed
8,MFLFMVSRNFSRRDFLKMTAGGVVLASAMPTLSWASLPDEPRVLAMNNLNTGELLETCYFDGNRYVGKELQRLNEFCRDHRRNEVHPMDKRLFDQISQIQKLIGTESEVIVISGYRSPVTNASLRSGSTGVAKKSLHMEGKAIDFRLDGVKLSTVRDAAISLKAGGVGYYPGSNFVHIDTGAVRSW,failed
9,MFLGEDYLLTNRAAVRLFNEVKDLPIVDPHNHLDAKDIVENKPWNDIWEVEGATDHYVWELMRRCGVSEEYITGSRSNKEKWLALAKVFPRFVGNPTYEWIHLDLWRRFNIKKVISEETAEEIWEETKKKLPEMTPQKLLRDMKVEILCTTDDPVSTLEHHRKAKEAVEGVTILPTWRPDRAMNVDKEGWREYVEKMGERYGEDTSTLDGFLNALWKSHEHFKEHGCVASDHALLEPSVYYVDENRARAVHEKAFSGEKLTQDEINDYKAFMMVQFGKMNQETNWVTQLHIGALRDYRDSLFKTLGPDSGGDISTNFLRIAEGLRYFLNEFDGKLKIVLYVLDPTHLPTISTIARAFPNVYVGAPWWFNDSPFGMEMHLKYLASVDLLYNLAGMVTDSRKLLSFGSRTEMFRRVLSNVVGEMVEKGQIPIKEARELVKHVSYDGPKALFFG,not failed
10,MFLHSVNLWNLAFYVFMVFLATLGLWDVFFGFEENKCSMSYMFEYPEYQKIELPKKLAKRYPAYELYLYGEGSYAEEHKILPLTGIPVLFLPGNAGSYKQVRSIGSIALRKAEDIDFKYHFDFFSVNFNEELVALYGGSLQKQTKFVHECIKTILKLYKGQEFAPKSVAIIGHSMGGLVARALLTLKNFKHDLINLLITQATPHVAPVMPLDRFITDFYTTVNNYWILNARHINLTTLSVAGGFRDYQVRSGLTFLPKLSHHTSALSVVSSAVPKTWVSTDHLSIVWCKQLQLTTVRAFFDLIDADTKQITQNSKKKLSVLYHHFIRHPSKHFEENPAIISDLTGTSMWVLVKVSKWTYVAYNESEKIYFTFPLENHRKIYTHVYCQSTMLDTNSWIFACINSTSMCLQGVDLSWKAELLPTIKYLTLRLQDYPSLSHLVVYVPSVRGSKFVVDCEFFKKEKRYIQLPVTHLFSFGLSSRKVVLNTNGLYYNLELLNFGQIYQAFKINVVSKCSAVKEEITSIYRLHIPWSYEDSLTIAQAPSSTEISLKLHIAQPENNTHVALFKMYTSSDCRYEVTVKTSFSQILGQVVRFHGGALPAYVVSNILLAYRGQLYSLFSTGCCLEYATMLDKEAKPYKVDPFVIIIKFLLGYKWFKELWDVLLLPELDAVILTCQSMCFPLISLILFLFGTCTAYWSGLLSSASVRLLSSLWLALKRPSELPKDIKMISPDLPFLTIVLIIVSWTTCGALAILLSYLYYVFKVVHLQASLTTFKNSQPVNPKHSRRSEKKSNHHKDSSIHHLRLSANDAEDSLRMHSTVINLLTWIVLLSMPSLIYWLKNLRYYFKLNPDPCKPLAFILIPTMAILGNTYTVSIKSSKLLKTTSQFPLPLAVGVIAFGSAHLYRLPCFVFIPLLLHALCNFM,failed
11,MFLSVVTVAFRNYEGVVKTWRSLRNLARDPGLSFEWIVVDGGSEDGTREFLRKRHGEFNLRFISEKDRGIYDAMNKGIALAQGRYTLFLNSGDAFHDDAALFVRQLARQKGEAMYIGDALLDFGGGHKIRRKAKPGYYIYHSLPASHQAIFFPTAALKKYPYDLQYHVSSDYALAARLYKAGYPFRRINGLVSEFSMGGVSTSNNLELCQDAKNVQRKILRVPGFWAQLSYLLRLKTTGKTKARYNKVLEHHHHHH,not failed
12,MFLVCGEALFDIFTRADDGGSLNRLGFDAIAGGSPFNVAIGLRRLGVEAAFFAGLSTDYLGRRLRAVLEQETVNAEHLIEFDAPTTLAMVAVGSDGSPTYSFRGDGCADRQLRLEHLPELDERVRGIHVGSFSLVVQPIADTLLALVARESARRLISLDPNVRLNPAPDIQRWRTQIAAFAEHAHLIKVSDEDLHLLYPDSDPQQIAEGWLGKRTQLVIVTRGTQGASVFTRQHGTWSVPAKTVVTADTVGAGDTFQAALLTFLSERQLDTPQGLSTLSRETLDEMLNFAVGAAALTCTKVGPDLPYRHQLG,failed
13,MFLVISVVGSSNIDIVLKVDHFTKPGETQKAIEMNVFPGGKGANQAVTVAKIGEKGCRFVTCIGNDDYSDLLIENYEKLGITGYIRVSLPTGRAFIEVDKTGQNRIIIFPGANAELKKELIDWNTLSESDILLLQNEIPFETTLECAKRFNGIVIFDPAPAQGINEEIFQYLDYLTPNEKEIEALSKDFFGEFLTVEKAAEKFLELGVKNVIVKLGDKGVLLVNKNEKKHFPTFKVKAVDTTAAGDVFNGAFAVALSEGKNPEEAVIFGTAAAAISVTRLGAQSSIPAREEVEAFLKNL,not failed
14,MFLVLCSVMIFIGFLLQIYVWPRIPKSIFKYRGLVLSISLIILIFVVRIPLEITALTLPFYLMMFFGLFLFWKDRKL,failed
15,MFLVTGVFVSVRHERTGTGTTARESVQRITWFGTLRDDGVALVMPLSDRMLPTGIIREVPEERFLEEFMPDQATYEEHFRETAESLRGRLQLASTLPTDLYPEERILLDALSALLHGRSAAKPVDADIPAVLELLAHGQEGRSAGAFQTRLSGAAVDYRRQGDYPRALLFYDRALTMQGQEDRLLFNVARVHYEMGELAEAETCLKRALESNPALEEAGRFLAFLQKTTLQPQAGDE,failed
16,MFMAENRLQLQKGSAEETIERFYNRQGIETIEGFQQMFVTKTLNTEDTDEVKILTIWESEDSFNNWLNSDVFKEAHKNVRLKSDDDGQQSPILSNKVFKYDIGYHYQK,not failed
17,MFNAYREYWNNITTMNASATRAQYWWPQLINYLVLGIYSAITGVYRYIEVTPNDGTIIKEWNTVTIIFFLLTALIWLANFTVRARRLHDRDHSNWWILFYLLPFIGTLVIFITLILPSKSHTRWPVNQSEI,failed
18,MFNKRLKQQLATLSDELNALQQFKACLESQVLNLELDGEGAIRRANQNFIQALELDGQPLAGVALESIISRHPQAVPLYREFKAALGRNESYTGQLRLQRGGGREAWLQVCVQPIRDGAGRLDHYNLICTDQS,failed
19,MFPAQEEADRTVFVGNLEARVREEILYELFLQAGPLTKVTICKDREGKPKSFGFVCFKHPESVSYAIALLNGIRLYGRPINVQYRFGSSRSSEPANQSFESCVKINSHNYRNEEMLVGRSSFPMQYFPINNTSLPQEYFLFQKMQWHVYNPVLQLPYYEMTAPLPNSASVSSSLNHVPDLEAGPSSYKWTHQQPSDSDLYQMTAPLPNSASVSSSLNHVPDLEAGPSSYKWTHQQPSDSDLYQMNKRKRQKQTSDSDSSTDNNRGNECSQKFRKSKKKKRY,not failed
20,MFPFTHVHAFNKGNEEVYMDVENGKNGEGSVFRMPLHYPRYSKEDYQDMPEWKLDRVLADYGLSTYGDLAHKRDFAIGAFLWISTRNPKLYQEKSINSKLKKDTKSAHA,failed
21,MFPSFITHIQSPNSHHHYSSPSFPFSSDFLESFDESFLINQFLLQQQDVAANVVESPWKFCKKLELKKKNEKCVDGSTSQEVQWRRTVKKRDRHSKICTAQGPRDRRMRLSLQIARKFFDLQDMLGFDKASKTIEWLFSKSKTSIKQLKERVAASEGGGKDEHLQVDEKEKDETLKLRVSKRRTKTMESSFKTKESRERARKRARERTMAKMKMRLFETSETISDPHQETREIKITNGVQLLEKENKEQEWSNTNDVHMVEYQMDSVSIIEKFLGLTSDSSSSSIFGDSEECYTSLSSVRGTISAAGNSNVLTKNPN,failed
22,MFREFINLLFMQFKMIKAYLPVFIFFSILFPLGFIFSFGTIIQRTLSTYLISGSITFFISINSIISVAQNLALERSSGRFSLMIASGIPIQLYAISITISNGIQTLMLIPVFLVLGYFLLGVRISSALFFVLSIIGSIYMASMVGLLIGTAIRNLHAVNQWSSIIGFILSFFAPVYFPLTQIPLPFRYLAYLEPTTYVSQSTYFALVGNPISLAWFGGTVVIGFLFSFLSSLLMKKAF,failed
23,MFRRPRLRALSALVLAALTLPAVAQQVLIRGATVHTATSQGTLRNTDVLVQGGVIRAIGTGLAVPTHGRVVEAKGRPLTPALFGGITEIGIEEVSGEAATVDSGVKLTEQPMRPEFDVTLAYNPDSVLIPVARVEGIGFTALGATTSGAFIAGQGGIVRLDGGPDPVGPHALFVRLGAAASDLTGSSRAAQWMLLDQLVAEARGRVPADSPHALLTPVGRSVLANYLAGRGRIVVQVERAADIRQLLRWAQREKVRIAIAGGTEAWKLAPQLAQAKVPVLVDALADLPSTFDQIGATLENAARLRAAGVEVSFTQSGDASHNARKLRQLAGNAVANGLPWESGLAGLTRVPAEIFGVGDRIGSIAVGKQADLVLWDGDPLDVAHYAEQVWMGGRDMPMRSRQTDLRDRYLQQAGPLPRAYQR,failed
24,MFRSFPVDSPHVYLRWVAISISQPVIRHGSSVVFVGGTPASSFLWPLCINRQNQIQTHFLKSFRIQEFLPRKSQCSRVTTIKETIFYPICLKSSKQIIVNATTFQCINYLLPIQFAYRNEPFRKFFATRIDFSSNQIERTNHSNRI,failed
25,MFRSKSCREETRSSSITNKYHCFSHGEKSESEPTNQQPPVMMRSYSTSTYNAYQNPTIVRDDSNNKSKRSNKVKKKGFKGLCEAEIQRKKRVASYNVYGVEGRVKGSMKKSFKWFKETCSNAVYGLW,failed
